Here are results for two molecules from patent publication US20100203552.

In series [1] the test system is GST-Bim polypeptide [GST: P08515].
Target sequence in this assay (P08515 whole entry, looked up, the tested form may be a part): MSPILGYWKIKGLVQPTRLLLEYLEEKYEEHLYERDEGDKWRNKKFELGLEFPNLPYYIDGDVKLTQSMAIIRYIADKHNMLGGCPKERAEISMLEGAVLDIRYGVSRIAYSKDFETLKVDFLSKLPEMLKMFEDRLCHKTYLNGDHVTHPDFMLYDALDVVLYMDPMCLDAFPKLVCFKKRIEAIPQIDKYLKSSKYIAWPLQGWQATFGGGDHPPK
The test system of series [2] is phosphorylated GST-Bim fusion protein [GST: P08515].
Series [3] addresses GST-Bim polypeptide [GST: P08515]. The source holds these as a separate data set.
Target sequence in this assay (P08515 whole entry, looked up, the tested form may be a part): as above

Sequence of phosphorylated GST-Bim fusion protein [GST: P08515] (P08515 whole entry, looked up, the tested form may be a part): as above

Consider Myc-tagged TRIM2 (myc-TRIM2), for which the values for the Bim ubiquitination entry in series [1] and in series [2] were “Incubation of TRIM2 polypeptide with Bim resulted in low levels of Bim ubiquitination” and “addition of active MAPK to the reaction enhanced Bim ubiquitination”, respectively.

B1: TRIM2 protein from rat brain lysate / rat cortical neuronal cell lysates (protein)
chain: MQRAGSRTAGPTCQWSRMASEGASIPSPVVRQIDKQFLICSICLERYKNPKVLPCLHTFCERCLQNYIPAHSLTLSCPVCRQTSILPEKGVAALQNNFFITNLMDVLQRTPGSNGEDPSILQTVTAVAAGKPLSCPNHDGNVMEFYCQSCETAMCRECTEGEHAEHPTVPLKDVVEQHKASLQVQLDAVNKRLPEIDSALQFISEIIHQLTNQKASIVDDIHSTFDELQKTLNVRKSVLLMELEVNYGLKHKVLQSQLDTLLQGQESIKSCSNFTAQALNHGTETEVLLVKKQMSEKLNELADQDFPLHPRENDQLDFIVETEGLKKSIHNLGTILTTNAVASETVATGEGLRQTIIGQPMSVTITTKDKDGELCKTGNAYLTAELSTPDGSVADGEILDNKNGTYEFLYTVQKEGDFTLSLRLYDQHIRGSPFKLKVIRSADVSPTTEGVKRRVKSPGSGHVKQKAVKRPASMYSTGKRKENPIEDDLIFRVGTKGRNKGEFTNLQGVAASTSGKILIADSNNQCVQIFSNDGQFKSRFGIRGRSPGQLQRPTGVAVHPSGDIIIADYDNKWVSIFSNDGKFKTKIGSGKLMGPKGVSVDRNGHIIVVDNKACCVFIFQPNGKIVTRFGSRGNGDRQFAGPHFAAVNSSNEIIITDFHNHSVKVFNQEGEFMLKFGSNGEGNGQFNAPTGVAVDSNGNIIVADWGNSRIQVFDGSGSFLSYINTSADPLYGPQGLALTSDGHVVVADSGNHCFKVYRYLQ
Turning to B1, in series [3], the “Bim ubiquitination (anti-ubiquitin immunoblot of immunoprecipitated GST-Bim)” value is “immunodepletion of TRIM2 protein reduces Bim ubiquitination in lysates from preconditioned cells to that of control lysates”.
